Here are results for two substances from publication PMC3802530.

The Kd is the constant that tells how readily two partners part at equilibrium.

For test [1], the target named is K48-linked di-ubiquitin (K48-Ub2) (Homo sapiens) (UniProt P0CG47). The following applies: cited from earlier work.
The target in test [2] is K63-linked di-ubiquitin (K63-Ub2) (Homo sapiens) (UniProt P0CG47). As to conditions: cited from earlier work.
In a further test the target is monoUb (Homo sapiens) (UniProt P0CG47). As to conditions: cited from earlier work.
Test [3] has as its target K11-linked di-ubiquitin (UniProt P0CG48). As to the kind of experiment: 15N T1 relaxation.
Test [4] shares this target. The experiment in a line: NMR titration.

Bounds are passed on as bounds.

Chain of Ub-associated domain (UBA) of Ubiquilin-1 (Q9UMX0 546-586): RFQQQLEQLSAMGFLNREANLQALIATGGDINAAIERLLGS
Chain of hHR23a UBA2 UBA2 (P54725 315-361): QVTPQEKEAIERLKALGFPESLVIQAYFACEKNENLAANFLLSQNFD

As to hHR23a UBA2 UBA2 (from UniProt P54725), the Kd was 18 µM in test [1], more than 200 µM in test [2] and 400 µM in the test with monoUb (Homo sapiens).
In the case of “Ub-associated domain (UBA) of Ubiquilin-1 (from UniProt Q9UMX0 546-586) (domain or fragment)”, the stoichiometry N (UBA molecules per K11-Ub2) in the test with K11-linked di-ubiquitin [3] came out at 2. Further, in the test with K11-linked di-ubiquitin [4], the Kd, site on the distal Ub (two independent sites) was 2.9 µM and the stoichiometry N (UQ1-UBA:K11-Ub2) stood at 2.
